In patent US20210079084A1 (OPSIDIO, published 2021):
Positions count from the first letter of the chain named. Values belong to the binder of their own block, whether it stands above or below them.

Assays:
[1] = target: T1, human stem cell factor isoform SCF248 (human, UniProt P21583 26-273); assay: binding score, flow cytometry on S1/S14 hSCF248 cells
T1 construct: also called hSCF248; soluble SCF

[2] = target: T2, human stem cell factor isoform SCF220 (human, UniProt P21583-2 26-245); assay: flow cytometry, directly labelled antibody on S1/S14 hSCF220 cells
T2 construct: whole, on cells; also called hSCF220; membrane SCF
T2 sequence (P21583 other isoform, or with tags, fused parts or gaps): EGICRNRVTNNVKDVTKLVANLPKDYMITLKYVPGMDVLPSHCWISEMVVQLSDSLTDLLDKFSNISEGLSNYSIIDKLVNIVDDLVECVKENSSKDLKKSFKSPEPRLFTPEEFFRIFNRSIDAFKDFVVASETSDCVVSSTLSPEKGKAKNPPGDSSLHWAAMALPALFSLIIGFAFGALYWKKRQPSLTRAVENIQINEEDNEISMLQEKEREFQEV
Protocol: Binding of the labeled antibody to the cells was assessed by flow cytometry.

[3] = target: T2, human stem cell factor isoform SCF220; assay: flow cytometry on S1/S14 hSCF220 cells
[4] = target: T1, human stem cell factor isoform SCF248; assay: flow cytometry on S1/S14 hSCF248 cells; printed as BC50 (50% maximal binding)
[5] = target: T2, human stem cell factor isoform SCF220; assay: flow cytometry on the SCF220-expressing cell line

T1 sequence (P21583 26-273 limits assumed): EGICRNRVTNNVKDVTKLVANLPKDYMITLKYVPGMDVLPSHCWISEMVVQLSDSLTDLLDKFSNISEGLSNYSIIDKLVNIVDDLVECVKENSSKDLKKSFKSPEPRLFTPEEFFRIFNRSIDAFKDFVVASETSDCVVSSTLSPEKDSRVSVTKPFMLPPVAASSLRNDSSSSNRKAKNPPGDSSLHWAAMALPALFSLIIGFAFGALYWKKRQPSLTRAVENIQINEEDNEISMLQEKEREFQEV

binding result [1]: binds
B1: 5H10 VH2/VK2 (antibody, V domains shown)
VH: QVQLVQSGAEVKKPGSSVKISCKSSGYAFSSYWMNWVKQRPGQGLEWIGQIYPGDGDTHYNGKFKGKATLTADKSTSTAYMELSSLRSEDTAVYFCSSSNWVGSYWGQGTLVTVSS
VL: DVVMTQSPLSLPVTLGQPASISCKSSQSLLESDGKTYLNWLQQRPGQSPRRLIYLVSRLDSGVPDRFTGSGSGTDFTLKISRVEAEDVGVYYCWQGTHLPQTFGGGTKVEIK
notes: Humanized; Only variable regions are tied to the name

binding result [2]: no binding
B2: murine 5H10 antibody (antibody, V domains shown)
VH: B1 VH with V5Q, V11L, K12V, K13R, T76S, E82Q, S85R, R87T, T91S, S116A
VL: not shown
notes: Murine monoclonal from a hybridoma, kappa light chain; also called OpSCF; murine parent 5H10

binding result [3]: no binding
B3: 5H10 VH0/VK0 (chimeric 5H10) (antibody, V domains shown)
VH: B1 VH with V5Q, V11L, K12V, K13R, T76S, E82Q, S85R, R87T, T91S, S116A
VL: not shown
notes: also called chimeric antibody 5H10

binding result [3]: no binding
EC50 [4]: 0.9 µg/mL
B4: 5H10 VH3/VK3 (antibody, V domains shown)
VH: B1 VH with I20V, K38R
VL: B1 VL with T68S
notes: as for B1

binding result [5]: no binding
B5: 5H10 VH1/VK3 (antibody, V domains shown)
VH: B1 VH with V11L, R87T, T91S
VL: B1 VL with T68S
notes: as for B1

binding result [5]: no binding
B6: 5H10 VH2/VK3 (antibody, V domains shown)
VH: B1 VH
VL: B1 VL with T68S
notes: as for B1

binding result [3]: no binding
B7: 5H10 VH5/VK3 (antibody, V domains shown)
VH: B1 VH with I20V, K38R, K65Q, K67R, A68V, L70I, F95Y
VL: B1 VL with T68S
notes: as for B1

binding result [3]: no binding
B8: 5H10 VH4/VK3 (antibody, V domains shown)
VH: B1 VH with I20V, K38R, K67R, A68V, L70I
VL: B1 VL with T68S
notes: as for B1

binding result [3]: no binding
B9: 5H10 VH5/VK2 (antibody, V domains shown)
VH: B1 VH with I20V, K38R, K65Q, K67R, A68V, L70I, F95Y
VL: B1 VL
notes: as for B1

binding result [3]: no binding
B10: 5H10 VH3/VK2 (antibody, V domains shown)
VH: B1 VH with I20V, K38R
VL: B1 VL
notes: as for B1

binding result [3]: no binding
B11: 5H10 VH4/VK2 (antibody, V domains shown)
VH: B1 VH with I20V, K38R, K67R, A68V, L70I
VL: B1 VL
notes: as for B1

binding result [1]: binds
B12: 5H10 VH1/VK1 (antibody, V domains shown)
VH: B1 VH with V11L, R87T, T91S
VL: B1 VL with S10T, P12S
notes: as for B1

binding result [1]: binds
B13: 5H10 VH1/VK2 (antibody, V domains shown)
VH: B1 VH with V11L, R87T, T91S
VL: B1 VL
notes: as for B1
